Test [1] addresses T1, huNectin4-C1C2-V5 (C1C2 construct, lacking the Ig-like V domain) (human, UniProt Q96NY8 148-510).
T1 construct: Expressed on CHO cells; also called Hu-Nectin4 IgC1C2-V5; Nectin4-C1C2-V5 sorted cells
T1 sequence: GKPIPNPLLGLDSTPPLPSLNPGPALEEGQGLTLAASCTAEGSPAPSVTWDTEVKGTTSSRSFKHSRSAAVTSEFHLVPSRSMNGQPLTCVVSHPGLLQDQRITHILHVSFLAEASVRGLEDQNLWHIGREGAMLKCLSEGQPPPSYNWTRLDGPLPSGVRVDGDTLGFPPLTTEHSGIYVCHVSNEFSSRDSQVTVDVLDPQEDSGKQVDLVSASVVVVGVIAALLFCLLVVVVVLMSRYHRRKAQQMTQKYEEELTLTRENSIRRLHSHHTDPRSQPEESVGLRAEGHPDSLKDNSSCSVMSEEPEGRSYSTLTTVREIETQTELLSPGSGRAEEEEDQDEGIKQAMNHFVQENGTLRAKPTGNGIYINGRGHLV
The test can be described thus: flow cytometry on Nectin4-C1C2-V5 sorted cells.

Test [2] concerns the target T2, wild-type human Nectin-4 on the CHO huNectin4 Cl.3C8 cell line (human, UniProt Q96NY8 32-510).
T2 construct: also called whole Nectin-4 protein; huNectin4 CI.3C8
T2 sequence: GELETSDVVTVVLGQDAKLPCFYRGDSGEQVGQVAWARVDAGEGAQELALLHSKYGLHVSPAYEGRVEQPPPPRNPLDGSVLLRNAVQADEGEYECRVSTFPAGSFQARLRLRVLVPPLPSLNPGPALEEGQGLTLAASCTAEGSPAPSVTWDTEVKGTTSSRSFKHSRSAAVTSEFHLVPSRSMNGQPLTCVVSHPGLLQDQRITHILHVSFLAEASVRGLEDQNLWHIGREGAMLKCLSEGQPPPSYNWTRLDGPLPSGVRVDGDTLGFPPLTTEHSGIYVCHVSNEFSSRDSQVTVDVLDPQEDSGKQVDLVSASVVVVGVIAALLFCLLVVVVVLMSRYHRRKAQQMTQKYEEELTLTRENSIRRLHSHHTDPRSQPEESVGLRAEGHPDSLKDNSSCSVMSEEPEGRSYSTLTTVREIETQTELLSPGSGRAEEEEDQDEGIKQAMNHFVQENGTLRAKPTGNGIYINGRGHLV
Kind of test: flow cytometry on wild-type human Nectin-4 cell line.

For test [3], the target named is T3, human Nectin 2 on CHO cells (human, UniProt Q92692 32-538).
T3 sequence: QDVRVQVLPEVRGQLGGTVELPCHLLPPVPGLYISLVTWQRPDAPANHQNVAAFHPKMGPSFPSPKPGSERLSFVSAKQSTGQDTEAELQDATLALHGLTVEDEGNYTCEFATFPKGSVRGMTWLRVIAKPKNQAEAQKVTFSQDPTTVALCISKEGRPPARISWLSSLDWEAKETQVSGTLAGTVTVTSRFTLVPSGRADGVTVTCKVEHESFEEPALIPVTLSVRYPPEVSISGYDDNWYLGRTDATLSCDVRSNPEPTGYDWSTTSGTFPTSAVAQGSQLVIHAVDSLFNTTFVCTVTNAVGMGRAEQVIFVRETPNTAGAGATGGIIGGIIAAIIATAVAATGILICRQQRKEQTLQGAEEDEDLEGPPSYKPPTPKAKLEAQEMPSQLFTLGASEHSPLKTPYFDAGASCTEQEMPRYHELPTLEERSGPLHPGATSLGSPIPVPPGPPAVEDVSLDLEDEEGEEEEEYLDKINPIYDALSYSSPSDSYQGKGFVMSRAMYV
Kind of test: flow cytometry on CHO cells expressing human Nectin 2. The method, then: Anti-Nectin-4 antibodies were tested by flow cytometry for binding to different CHO cell lines made to express respectively the human Nectin 1, Nectin 2, Nectin 3 and PVR proteins. The expression of each cell lines was controlled and validated with known respectively the anti-human Nectin1, anti-human Nectin2, anti-human Nectin3 and anti-human PVR antibodies. The mature amino acid sequence of the proteins expressed by the cells were as follows:
Nectin 1, Nectin 2, Nectin 3 and PVR proteins as in Example 12. […] Epitope mapping was carried out by assessing competition for binding to Nectin-4 by SPR as in Example 14.

The target of test [4] is T4, human Nectin-4 Mutant 7 (human, UniProt Q96NY8 32-510).
T4 construct: Expressed on transfected HEK-293T cells; also called S195A/K197T/S199A
T4 chain: T2 sequence with S164A, K166T, S168A
Kind of test: binding to HEK-293T cells transfected with the Nectin-4 mutant.

Test [5] concerns the target T5, human Nectin-4 Mutant 7bis (human, UniProt Q96NY8 32-510).
T5 construct: Expressed on transfected HEK-293T cells; also called A72P/G73N/K197T/S199A
T5 chain: T2 sequence with A41P, G42N, K166T, S168A
Described as above.

Changes are numbered by the printed parent chain.

B1: antibody 6A7 (antibody, human IgG1, V domains shown)
VH: QVQLKESGAELVKPGASVKLSCKASGYTFTSYWMHWVKQRPGHGLEWVGEIDPSDSYTNYNQKFKGKATLTIDKSSSTVYMQLSSLTSEDSAVYYCARSGNYDAMDYWGQGTSVTVSA
VL: DIVMTQAAFSSAVTLGTSASISCRSSKSLLHSNGITYLYWYLQKPGQSPHFLIYQMSNLASGVPDRFTSSGSGTDFTLRISRVEAEDVGVYYCAQNLELPWTFGGGTKLEIK
notes: also called CHG1-M-4N4-6A7
In the case of B1, the binding result is reported as “binds” in test [1]; “binds” in test [2]; “no binding” in test [3]; “no binding” in test [4]; “no binding” in test [5].
